What is called Kd is the constant that tells how readily two partners part at equilibrium. Low readings indicate a tighter complex, high ones a looser complex. In general, koff refers to a measure of how fast the partners let go of each other. Low values mean slow dissociation, high ones fast dissociation. A word on the kon: it is the second-order rate constant of association. One may read the EC50 as the concentration that produces a half-maximal response. A higher EC50 goes with lower potency in that assay. As usually defined, the EC50 (read off the curve) is the concentration at which the effect is half-maximal. Read a low EC50 (read off the curve) as greater potency.

Assay [1] addresses His-tagged WT1RMF/HLA-A2 complex (human). Briefly: SPR, Biacore 8K; antibody captured on Protein A chip, His-tagged complex as analyte; 1:1 Langmuir fit. On the technique in general: In SPR one partner is held on a chip, and binding of the other changes the refractive index at the surface.
Assay [2] addresses WT1RMF/HLA-A2 complex on cells (human). In words: flow cytometry, T2 cells pulsed with 25 µM WT1RMF, antibody 10 µg/mL.
For assay [3] the target is unchanged. In words: flow cytometry, T2 cells pulsed with 50 µM WT1RMF, antibody titrated 0.00096-45 nM, MFI curve. A general note: In flow cytometry, cells or beads pass a laser one at a time.
Assay [4] shares this target. Briefly: flow cytometry (MFI), T2 cells pulsed with 50 µM WT1RMF, antibody titrated.

B1: P01199-IgG1-SI (antibody, V domains shown)
VH: QVQLVESGGGLVKPGGSLRLSCAASGFTFSNAWMNWVRQTPGKGLEWVGRIKSKTDGGTKDYAAPVKGRFTISRDDSKNTLYLQMNSLNTEDTAVYYCSTDPRIAVTGTDYYYGMDVWGQGTTVTVSS
VL: not shown
notes: VH and VL joined to IgG1 constant regions with SI mutations (S239D and I332E, EU numbering) in the Fc
In assay [1], B1 displayed a Kd of 67.4 nM, a koff of 0.00987 s⁻¹ and a kon of 147000 M⁻¹ s⁻¹. Further, the “Percentage of Positive Cells (%)” value in assay [2] was 88.5%.

B2: P01264-IgG1-SI (antibody, V domains shown)
VH: EVQLVESGGGLVKPGGSLRLSCAASGFTFSNAWMNWVRQAPGKGLEWVGRIKSKTDGGTTDYAAPVKGRFTISRHDSKNTLYLQMNSLKTEDTAVYYCATDPRIAVTGTDYYYGMDVWGQGTTVTVSS
VL: DIVMTQTPSFLSASVGDRVTITCRASQDISNYLNWYQQKPGKAPKLLIYDASNLETGVPSRFSGSGSGTDFTFTISSLQPEDIATYYCQQYDNLPITFGQGTRLEIK
notes: as for B1
Turning to B2, in assay [3], the EC50 was found to be 0.896 nM. In addition, in assay [1], the Kd came out at 121 nM, the koff was 0.0177 s⁻¹ and the kon turned out to be 146000 M⁻¹ s⁻¹. In assay [2], the “Percentage of Positive Cells (%)” value turned out to be 75.4%.

B3: 3E6-IgG1-SI (antibody, V domains shown)
VH: EVQLVESGGGVVRPGGSLRLSCAASGFTFDDSGMSWVRQGPGKGLEWVSGINWNGGSTGYADSVKGRFTISRDNAKNSLYLQMNSLRAEDTALYYCARDPGIAVAGPYYYYYYGMDVWGQGTTVTVSS
VL: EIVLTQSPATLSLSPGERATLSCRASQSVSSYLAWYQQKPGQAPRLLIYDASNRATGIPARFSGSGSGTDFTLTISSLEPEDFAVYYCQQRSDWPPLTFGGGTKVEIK
notes: as for B1
B3 displayed an EC50 in assay [3] of 2.02 nM. In assay [1], the affinity, expressed as Kd, was 30.3 nM; the koff came out at 0.00451 s⁻¹; the kon stood at 149000 M⁻¹ s⁻¹. Besides, the “Percentage of Positive Cells (%)” value in assay [2] is 30.9%.

B4: P01218-IgG1-SI (antibody, V domains shown)
VH: EVQLVESGGGVVQPGRSLRLSCAASGFTFSSYAMHWVRQAPGKGLEWVAVISYDGSNKYYADSVKGRFTISRDNSKNTLYLQMNSLRAEDTAVYYCARAPYYGSGSYYNSYYYYHGMDVWGQGTTVTVSS
VL: AIWMTQSPSSLSASVGDRVTITCQASQDISNYLNWYQQKPGKAPNLLIYDASNLETGVPSRFSGSGSGTDFTLTISSLQPEDIATYYCQQYDNLPLTFGGGTKVEIK
notes: VH and VL joined to IgG1 constant regions with SI mutations (S239D and I332E, EU numbering) in the Fc; also called P01218-IgGI-SI
As for B4, the EC50 in assay [3] was 3.48 nM. Moreover, in assay [1], the Kd was 16.1 nM, the koff came out at 0.000902 s⁻¹ and the kon stood at 56200 M⁻¹ s⁻¹. For the same molecule, in assay [2], the “Percentage of Positive Cells (%)” value turned out to be 92.8%.

B5: ESK1 analog (antibody, V domains shown)
VH: QMQLVQSGAEVKEPGESLRISCKGSGYSFTNFWISWVRQMPGKGLEWMGRVDPGYSYSTYSPSFQGHVTISADKSTSTAYLQWNSLKASDTAMYYCARVQYSGYYDWFDPWGQGTLVTVSS
VL: not shown
notes: Fully human TCR-like monoclonal IgG1 antibody
Molecule B5 yielded an EC50 in assay [3] of 4.04 nM. Moreover, in assay [2], the “Percentage of Positive Cells (%)” value was determined as 88.8%.

B6: 7B9-IgG1-SI (antibody, V domains shown)
VH: EVQLVESGGGVVQPGGSLRLSCAASGFTFDDYAMHWVRQAPGKGLEWVSLISGDDGSTYYADSMKGRITISRDNSKNSLYLQMNSLRTEDTAMYYCAKASYGSGSYLYNYGMDVWGQGTTVTVFS
VL: DIQLTQSPSSLSASVGDRVTITCQASQDIINYLNWYQQKPGKAPKLLIYDTSNLETGVPSRFSGSGSGTDFAFTINSLQPEDIATYYCQQFVNLPLTFGGGTKVEIK
notes: VH and VL joined to IgG1 constant regions with SI mutations (S239D and I332E, EU numbering) in the Fc; also called 7B9-IgGI-SI
On to B6, for which, in assay [3], a half-maximal response (EC50) required 0.553 nM. Moreover, in assay [1], the affinity, expressed as Kd, was 15.3 nM; the koff came to 0.00185 s⁻¹; the kon was determined as 121000 M⁻¹ s⁻¹. Moreover, the “Percentage of Positive Cells (%)” value in assay [2] is 93%.

B7: 4F10-IgG1-SI (antibody, V domains shown)
VH: QVQLQESGPGLVKPSETLSLTCTVSGGSISNYYWSWIRQPPGKGLEWIGYIYYSGSTNYNPSLKSRVNISVDTSKSQVSLKLNSVIAADTAVYYCARHEDYWYFDLWGRGTLVTVSS
VL: DIQLTQSPSSLSASIRDRVTITCRASQDINNYLAWFQQKPGKAPKSLIYAVSSLESGVPSKFSGSGSGTDFTLTISSLQPEDFATYFCQQYNSYPFTFGPGTKVEIK
notes: as for B1
B7 had an EC50 in assay [3] of 0.42 nM. In assay [1], this molecule showed a Kd of 0.43 nM, a koff of 0.000664 s⁻¹ and a kon of 1.54e+06 M⁻¹ s⁻¹. In addition, the “Percentage of Positive Cells (%)” value in assay [2] turned out to be 95.6%.

B8: 1G7-IgG1-SI (antibody, V domains shown)
VH: QVQLVESGGGVVRPGGSLRLSCTASGFTFDDYGMTWVRQAPGKGLEWVSGINWNGGSTGYADSVKGRFTISRDNAKNSLFLQMNSLRAEDTALYYCARDQGIAVVGTHYYYYYGMDVWGQGTAVTVSS
VL: EIVLTQSPATLSLSPGERATLSCRASQSFSSYLAWYQQKPGQAPRLLIFDTSNRATGIPARFSGSGSGTDFTLTISSLEPEDFAVYYCQQRSNWPLTFGGGTKVEIK
notes: as for B1
Consider B8, for which the “EC50 (read off the curve)” value in assay [4] is ~1 nM. The molecule also registered an EC50 in assay [3] of 0.337 nM. Further, in assay [1], the Kd was 9.49 nM, the dissociation rate constant (koff) was 0.00151 s⁻¹ and the kon is 159000 M⁻¹ s⁻¹. The “Percentage of Positive Cells (%)” value in assay [2] stood at 92.4%.

B9: 1E9-IgG1-SI (antibody, V domains shown)
VH: EVQMVESGGDVVRPGGSLRLSCAASGFMFDDYGMSWVRHVQGKGLEWVSGIDWNGDSTGYADSVKGRFTISRDNAKNSLYLQMNSLRAEDTALYYCARDQGIAVAGPYNYYYGMDVWGQGTTVTVSS
VL: EIVLTQSPATLSLSPGERATLSCRASQSVSSYLAWYQEKPGQAPRLLIFDASNRATGIPARFSGSGSGTDFTLTISSLEPEDFAVYYCQQRSNWPFTFGPGTRVEIK
notes: VH and VL joined to IgG1 constant regions with SI mutations (S239D and I332E, EU numbering) in the Fc; also called 1E9-IgGI-SI
For B9, it took 0.798 nM to reach a half-maximal effect in assay [3] (EC50). For the same molecule, in assay [1], the Kd is 22.4 nM, the koff is 0.00164 s⁻¹ and the kon worked out at 73100 M⁻¹ s⁻¹. Besides, in assay [2], the “Percentage of Positive Cells (%)” value turned out to be 94.9%.

B10: 3A6-IgG1-SI (antibody, V domains shown)
VH: QVQLQESGPGMVKPSETLSLTCTVSGGSISYNYWSWIRQPPGKGLEWIGYIYHSGTTKYNPSLKSRVTMSVDTSKNHFSLKLNSVTAADTAVYYCARHEDYWFFDLWGRGTLVTVSS
VL: DIQMTQSPSSLSASVGDRVTITCRASQGISNYLVWFQQKPGKAPKSLIYAASILQSGVPSKFSGSGSGTDFTLTINSLQPEDFATYYCQQYNTYPFTFGPGTKVDIK
notes: as for B1
B10 yielded an EC50 in assay [3] of 2.26 nM. In assay [1], this molecule displayed a Kd of 7100 nM, a koff of 0.0204 s⁻¹ and a kon of 2870 M⁻¹ s⁻¹. Moreover, the “Percentage of Positive Cells (%)” value in assay [2] came out at 70.3%.
